US20220378887A1 (GENOIMMUNE THERAPEUTICS, published 2022)

B1: VVVGAGDVGK polypeptide (KRAS; SEQ ID NO: 15) (peptide)
peptide: VVVGAGDVGK
notes: Synthesized mutant KRAS neoantigen peptide; also called high-frequency mutant polypeptide
B2: STIDESPIFK polypeptide (GLCE; SEQ ID NO: 7) (peptide)
peptide: STIDESPIFK
notes: Synthesized mutant neoantigen peptide; also called high-frequency mutant polypeptide
B3: TTAPFLSGK polypeptide (CTNNB1; SEQ ID NO: 9) (peptide)
peptide: TTAPFLSGK
notes: as for B2
B4: RTIEQLTLK polypeptide (ARHGEF11; SEQ ID NO: 8) (peptide)
peptide: RTIEQLTLK
notes: as for B2

Each binder was assayed against T1, HLA-A*11:01 (MHC-I molecules on the surfaces of T2 cells) (human) (assay: T2 cell MHC-I stabilisation assay, flow cytometry with FITC anti-HLA-A*11:01 antibody).
T1 construct: It only names the antibody against 'the corresponding HLA typing (HLA-A*11:01)'; also called HLA molecules
With B1 the “FI (fluorescence index)” value was 1.66.
For B2, the “FI (fluorescence index)” value was 4.09.
For B3, the “FI (fluorescence index)” value was 1.02.
For B4, the “FI (fluorescence index)” value was 1.57.
